Reference: the supplement of paper PMC9170038

Tested on: MS2 coat protein
Test: apparent KD of MS2 coat protein; designed switch direction (-1 OFF switch, 1 ON switch): -1; higher = weaker reporter binding
Outline: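 An oligonucleotide input, 200 uM small-molecule ligand, or no input was present during titration of SNAP-549-labelled MS2 coat protein, which was doubled from 0.7 or 1.5 nM to 3 µM. Designed RNA switches had been transcribed on Illumina chips by stalled E. coli RNA polymerase. Apparent KD per design is the median over clusters of curves fitted to normalised cluster fluorescence.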

[1] = input ligand: microRNA oligo, concentration not stated
[2] = Eterna round: R95, input ligand: microRNA oligo, concentration not stated
[3] = Eterna round: R95, input ligand: FMN 200 uM
[4] = Eterna round: R95, input ligand: none

Row | Sequence | apparent KD of MS2 coat protein (input ligand: FMN 200 uM) | apparent KD of MS2 coat protein [1] | apparent KD of MS2 coat protein (input ligand: none) | apparent KD of MS2 coat protein [2] | apparent KD of MS2 coat protein [3] | apparent KD of MS2 coat protein [4]
1 | UAUUUGUCAGGAUAUGAGUCGUAGAACAAUAGUACUACGUCUCAGAAGGGACAUGAGGAUCACCCAUGUGCCUC [Fiskers Ex 4 Super Stable 44 mod 29] (Eterna round: R96, puzzle: Exclusion 4) | 0.276 µM | 0.0243 µM | 0.0289 µM | – | – | –
2 | UAUUUGUCAGGAUAUGAGUCGUAGAACAAUAGUACUACGUCUCAGAAGGGACAUGAGGAUCACCCAUGUGCCUC [Fiskers Ex 4 Super Stable 44 mod 29] (puzzle: Exclusion 4) | – | – | – | 0.0255 µM | – | –
3 | UCAACCAGAGGAUAUGCGCAUAGAUCAGACUUUGUUUCUUAACAUGAGGAUCACCCAUGUAGAAGGCUGUAACC [Ex2 #77] (Eterna round: R97, puzzle: Exclusion 2) | 0.0203 µM | – | 0.0198 µM | – | – | –
4 | UCAAGACAUGAGGAUCACCCAUGUCAGGAUAUCUAGGUUCGCUAUUUCAUUGUUAACGAGAGAAGGGACAUGAU [EX1 C.13] (Eterna round: R97, puzzle: Exclusion 1) | 0.0229 µM | – | 0.018 µM | – | – | –
5 | UCACGGGACUGAGGAUAUACAUCAACCAUGGUUGUAGAAGGCAGAAGGUUGGAUCAUAUACUAAACAUGAGGAUCACCCAUGUU [JR_ExcNG1_Sub030] (Eterna round: R96, puzzle: Exclusion NG 1) | 0.0236 µM | 0.0199 µM | 0.0207 µM | – | – | –
6 | UCAGACAUGAGGAUCACCCAUGUGUGACCCUCCUGUCUCAGUCAGGAUAUACUUUUUCAAACUUAGUAGAAGGGACAACAAAAC [Oronerused] (Eterna round: R96, puzzle: Exclusion NG 3) | 0.0378 µM | 0.0278 µM | 0.0614 µM | – | – | –
7 | UCAGGUCGGUAGGAUAUCGACGGGAAAAGCCCACGAGAAGGACUGACAUGAGGAUCACCCAUGUGAGCGUAACC [EX6 B.1] (Eterna round: R97, puzzle: Exclusion 6) | 0.0379 µM | – | 0.101 µM | – | – | –
8 | UCAUACGGUGAGGAUAUCUCCGCUAAAGUGUGUAGAGAAGGCGCUACAUGAGGAUCACCCAUGUUUAUGGGCAG [Ex-6 Malc#12] (Eterna round: R96, puzzle: Exclusion 6) | – | 0.271 µM | – | – | – | –
9 | UCAUACGGUGAGGAUAUCUCCGCUAAAGUGUGUAGAGAAGGCGCUACAUGAGGAUCACCCAUGUUUAUGGGCAG [Ex-6 Malc#12] (puzzle: Exclusion 6) | – | – | – | 0.347 µM | 0.0529 µM | 0.443 µM
10 | UCAUACGGUGAGGAUAUCUCCGUUAAAGUAUGUAGAGAAGGCGCUACAUGAGGAUCACCCAUGUUUGUGGGCAG [Ex-6 Malc#10] (puzzle: Exclusion 6) | – | – | – | 0.323 µM | – | –
11 | UCAUGGAAGCAGGAUAUGCUUGUUUAAUUGUUUGCAGAAGGGCUAACAUGAGGAUCACCCAUGUAAGAGGUCUA [JR_E6_Sub063] (Eterna round: R96, puzzle: Exclusion 6) | 0.0596 µM | 0.0533 µM | 0.0725 µM | – | – | –
12 | UCAUGGAAGCAGGAUAUGCUUGUUUAAUUGUUUGCAGAAGGGCUAACAUGAGGAUCACCCAUGUAAGAGGUCUA [JR_E6_Sub063] (puzzle: Exclusion 6) | – | – | – | 0.0353 µM | – | –
13 | UCAUGUCCUGAGGAUAUGCAGCGGAUAAACGCAGCAGAAGGCAGGACAUGAGGAUCACCCAUGUGUGCCUUCUA [Exclusion 6 Mod5 of JL of Mod of Letion by ViennaUCT] (Eterna round: R97, puzzle: Exclusion 6) | 0.0183 µM | – | 0.19 µM | – | – | –
14 | UCAUGUCCUGAGGAUAUGUAGCGGAUAAACGCAACAGAAGGCAGGACAUGAGGAUCACCCAUGUGCGCCUUUCA [Exclusion 6 Mod2 of JL of Mod of Letion by ViennaUCT] (Eterna round: R97, puzzle: Exclusion 6) | 0.0267 µM | – | 0.0845 µM | – | – | –
15 | UCAUGUUUAGAGGAUAUGAUUACUCUAGAGUGAUCAGAAGGCUAGACAUGAGGAUCACCCAUGUCAGAACAUGU [Exclusion 6 - B - 17:a] (puzzle: Exclusion 6) | – | – | – | 0.0245 µM | – | –
16 | UCCAGUAUAUGGAGAUUUUACAUGAGGAUCACCCAUGUUGGGACAGCUUUUUGCUUGUCUUAUCCUACUUCGUGUGU [Design #4] (Eterna round: R97, puzzle: Sensor, turn-off variant 1) | 0.051 µM | – | 0.0563 µM | – | – | –

Row | Sequence | apparent KD of MS2 coat protein (input ligand: FMN 200 uM) | apparent KD of MS2 coat protein [1] | apparent KD of MS2 coat protein (input ligand: none) | apparent KD of MS2 coat protein [2] | apparent KD of MS2 coat protein [3] | apparent KD of MS2 coat protein [4]
17 | UCCGAACAUGAGGAUCACCCAUGUGAGGAUAUCCCGAGAUUAAAUGCCGCAAGAAGGCGGAGAAGGCGCAUGGG [Biditiinen] (puzzle: Exclusion 1) | – | – | – | 0.0173 µM | 0.0206 µM | 0.0195 µM
18 | UCCGGACAUGAGGAUCACCCAUGUCAGGAUAUACCCGAGGCAGCAAACACGCUAGCCAGUAGAAGGGACAUGGU [Geenma] (Eterna round: R97, puzzle: Exclusion 1) | 0.0183 µM | – | 0.0207 µM | – | – | –
19 | UCCGUUUGAGGAUAUAUGUAGACAAACAUGAGGAUCACCCAUGUCGGGAUCGAAAUGUCCGUAGAAGGCAAACUGG [Eternabot (L2) Solution 13] (Eterna round: R97, puzzle: Exclusion 5) | 0.0652 µM | – | 0.0229 µM | – | – | –
20 | UCCUGACAUGAGGAUCACCCAUGUUAGGAUAUGACAUUUGGCGCGACAGUGUGGAGUGUUAGAAGGGAUGUGGG [-29.9, -27.2 kcal, A 24%] (Eterna round: R97, puzzle: Exclusion 1) | 0.0183 µM | – | 0.0165 µM | – | – | –
21 | UCCUUACUGGUCAGGAUAUACAUUCGCGGGUGGGUGUAGAAGGGACAUGAGGAUCACCCAUGUACGUUACAUCC [alecazam54g] (Eterna round: R97, puzzle: Brourd's mod of Exclusion 4) | 0.018 µM | – | 0.016 µM | – | – | –
22 | UCGAUGUGAGGAUAUAUAUGCAGUAAUCCUUAUAUUUUAUAACUUGAGGAUCACCCAAGUAGAAGGCGCGACGU [JR_Ex2_Sub058] (Eterna round: R97, puzzle: Exclusion 2) | 0.0273 µM | – | 0.0311 µM | – | – | –
23 | UCGAUGUGAGGAUAUAUAUGCAGUAGUCCUUAUGUUUUAUAACUUGAGGAUCACCCAAGUAGAAGGCGCGACGU [JR_Ex2_Sub060] (Eterna round: R97, puzzle: Exclusion 2) | 0.0492 µM | – | 0.0395 µM | – | – | –
24 | UCGCUCCGUGUAGGAUAUCGCCGUACUAUGCGGCGAGAAGGACAUGAGGAUCACCCAUGUAUGUUAUUAUCACGCGUGGCGCAA [Design 61] (Eterna round: R96, puzzle: Exclusion NG 1) | 0.0179 µM | 0.0134 µM | 0.0162 µM | – | – | –
25 | UCGCUCCGUGUAGGAUAUCGCCGUUCUAUUCGGCGAGAAGGACAUGAGGAUCACCCAUGUAUGUUAUUAUCACGUGUGGCGCGC [Design 55] (Eterna round: R96, puzzle: Exclusion NG 1) | 0.036 µM | 0.014 µM | 0.0206 µM | – | – | –
26 | UCGCUCCGUGUAGGAUAUCGUUGUACCCUGCGGCGAGAAGGACAUGAGGAUCACCCAUGUAUGUUAUUAUCACGCGUGGCGCAA [Design 69] (Eterna round: R96, puzzle: Exclusion NG 1) | 0.0159 µM | 0.0134 µM | 0.0183 µM | – | – | –
27 | UCGCUCCGUGUAGGAUAUCGUUGUAUGAUGCGGCGAGAAGGACAUGAGGAUCACCCAUGUAUGUUAUUAUCACGCGUGGCGCAA [Design 65] (Eterna round: R96, puzzle: Exclusion NG 1) | 0.0185 µM | 0.0153 µM | 0.0206 µM | – | – | –
28 | UCGCUCCGUGUAGGAUAUCGUUGUAUUAUGCGGCGAGAAGGACAUGAGGAUCACCCAUGUAUGUUAUUAUCACGCGUGGCGCAA [Design 66] (Eterna round: R96, puzzle: Exclusion NG 1) | 0.0148 µM | 0.0148 µM | 0.0187 µM | – | – | –
29 | UCGCUCCGUGUAGGAUAUCGUUGUAUUCUGCGGCGAGAAGGACAUGAGGAUCACCCAUGUAUGUUAUUAUCACGCGUGGCGCAA [Design 67] (Eterna round: R96, puzzle: Exclusion NG 1) | – | 0.0139 µM | – | – | – | –
30 | UCGGCGCGAGGAUAUACGUUUGCUUUUUUUUGUCUUUGUGUACAUGAGGAUCACCCAUGUAGAAGGCGCGCCGC [Apr-15 SS2-22] (puzzle: Exclusion 2) | – | – | – | 0.0185 µM | – | –
31 | UCGUGUAUAGAGGAUAUAUUAAUAUUUAAAACAAUAGAAGGCUAAACAUGAGGAUCACCCAUGUAUUUGGUUUU [JR_Ex6_Sub054] (Eterna round: R97, puzzle: Exclusion 6) | 0.0584 µM | – | 0.0209 µM | – | – | –
32 | UCGUGUGCGUAGGAUAUCGGUAUGAAGGGAGAAUGAGAAGGGCGGACAUGAGGAUCACCCAUGUGUGCCGGAAA [EX6 B.4] (Eterna round: R97, puzzle: Exclusion 6) | 0.0433 µM | – | 0.018 µM | – | – | –
